Data on one molecule can be found in paper PMC2747274 (2009).

Assay in all cases: FP
Experiment [1] has as its target fluorescently labeled histone H3 tail peptide, monomethylated at K9 (UniProt P68431, monomethyl-lysine at K9; fluorescent label (position not given)).
Experiment [2] deals with fluorescently labeled histone H3 tail peptide, dimethylated at K27 (UniProt P68431, dimethyl-lysine at K27; fluorescent label (position not given)).
In experiment [3] the target is fluorescently labeled histone H3 tail peptide, monomethylated at K27 (UniProt P68431, monomethyl-lysine at K27; fluorescent label (position not given)).
The target of experiment [4] is fluorescently labeled histone H4 tail peptide, K20 unmodified (UniProt P62805, fluorescent label (position not given)).
The target of experiment [5] is fluorescently labeled histone H3 tail peptide, dimethylated at K4 (UniProt P68431, dimethyl-lysine at K4; fluorescent label (position not given)).
Experiment [6] concerns the target fluorescently labeled histone H4 tail peptide, monomethylated at K20 (UniProt P62805, monomethyl-lysine at K20; fluorescent label (position not given)).
The target in experiment [7] is fluorescently labeled histone H4 tail peptide, trimethylated at K20 (UniProt P62805, trimethyl-lysine at K20; fluorescent label (position not given)).
For experiment [8], the target named is fluorescently labeled histone H3 tail peptide, dimethylated at K9 (UniProt P68431, dimethyl-lysine at K9; fluorescent label (position not given)).
Experiment [9] has as its target fluorescently labeled histone H4 tail peptide, dimethylated at K20 (UniProt P62805, dimethyl-lysine at K20; fluorescent label (position not given)).
The target of experiment [10] is fluorescently labeled histone H3 tail peptide, monomethylated at K4 (UniProt P68431, monomethyl-lysine at K4; fluorescent label (position not given)).

B1: human MBTD1 (Malignant Brain Tumor domain-containing protein 1) fragment composed of all four MBT repeats (residues 130-566) (domain or fragment)
chain: AKTKAAVSMEGFSWGNYINSNSFIAAPVTCFKHAPMGTCWGDISENVRVEVPNTDCSLPTKVFWIAGIVKLAGYNALLRYEGFENDSGLDFWCNICGSDIHPVGWCAASGKPLVPPRTIQHKYTNWKAFLVKRLTGAKTLPPDFSQKVSESMQYPFKPCMRVEVVDKRHLCRTRVAVVESVIGGRLRLVYEESEDRTDDFWCHMHSPLIHHIGWSRSIGHRFKRSDITKKQDGHFDTPPHLFAKVKEVDQSGEWFKEGMKLEAIDPLNLSTICVATIRKVLADGFLMIGIDGSEAADGSDWFCYHATSPSIFPVGFCEINMIELTPPRGYTKLPFKWFDYLRETGSIAAPVKLFNKDVPNHGFRVGMKLEAVDLMEPRLICVATVTRIIHRLLRIHFDGWEEEYDQWVDCESPDLYPVGWCQLTGYQLQPPASQSSR
What is called Kd is the free concentration of one partner at which half of the binding sites on the other are occupied at equilibrium, for simple one-to-one binding. Read a high Kd as a looser complex. Regarding B1, the Kd in experiment [1] worked out at 152 µM; in experiment [2], 185 µM; in [3] it was 244 µM; in experiment [4], 480 µM; in experiment [5] it was 145 µM; in experiment [6], 7 µM. The Kd in experiment [7] was determined as 680 µM; in [8] it was 550 µM; in experiment [9] it was 13 µM; in experiment [10], 126 µM.
